{"source": "paper PMC1236978", "molecular_target": "T1, HutP (V51I) (Bacillus subtilis, UniProt P10943 1-148, V51I)", "T1 sequence": "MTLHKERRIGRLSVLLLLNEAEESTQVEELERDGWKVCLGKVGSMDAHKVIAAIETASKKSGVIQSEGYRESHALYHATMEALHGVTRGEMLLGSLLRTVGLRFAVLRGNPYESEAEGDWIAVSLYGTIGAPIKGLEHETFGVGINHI", "assay": "EMSA", "data": [{"binder": "CAUAGAUCUUAGACGAUAGGG (ssRNA)", "note": "[21mer hut RNA (minimal RNA element)]", "values": [{"measurement": "binding result", "result": "binds"}]}]}
